Experiments:
FPPS synthase assay [1] = substrate: C=C(C)CCO[P@@](=O)(O)OP(=O)(O)O; test: FPPS synthase assay; format: biochemical, Homo sapiens; settings: co-substrate GPP
Source text: (§1) FPPS synthase assay on human farnesyl pyrophosphate synthase (FPPS; wtFPPS)

FPPS synthase assay [2] = substrate: CC(C)=CCC/C(C)=C/COP(=O)(O)OP(=O)(O)O; test: FPPS synthase assay; format: biochemical, Homo sapiens; settings: co-substrate IPP
Source text: as §1

B1: human farnesyl pyrophosphate synthase (FPPS; wtFPPS) (Homo sapiens) (protein)
chain: MNGDQNSDVYAQEKQDFVQHFSQIVRVLTEDEMGHPEIGDAIARLKEVLEYNAIGGKYNRGLTVVVAFRELVEPRKQDADSLQRAWTVGWCVELLQAFFLVADDIMDSSLTRRGQICWYQKPGVGLDAINDANLLEACIYRLLKLYCREQPYYLNLIELFLQSSYQTEIGQTLDLLTAPQGNVDLVRFTEKRYKSIVKYKTAFYSFYLPIAAAMYMAGIDGEKEHANAKKILLEMGEFFQIQDDYLDLFGDPSVTGKIGTDIQDNKCSWLVVQCLQRATPEQYQILKENYGQKEAEKVARVKALYEELDLPAVFLQYEEDSYSHIMALIEQYAAPLPPAVFLGLARKIYKRRK
notes: recombinant, pET-28a based LIC vector; TEV protease-cleaved for crystals; homodimer of 42 kDa monomers
FPPS synthase assay [1]
  Km: 1.8 ± 0.3 µM
  kcat: 0.42 s⁻¹
  kcat/Km: 230000 M⁻¹ s⁻¹
FPPS synthase assay [2]
  Km: 2.1 ± 0.2 µM
  kcat: 0.42 s⁻¹
  kcat/Km: 200000 M⁻¹ s⁻¹
